# Experimental data taken from IntAct's records for PubMed 16292983.
# B1: Ankyrin-2 (Homo sapiens), Q01484-2 (parent)
# chain: MMNEDAAQKSDSGEKFNGSSQRRKRPKKSDSNASFLRAARAGNLDKVVEYLKGGIDINTCNQNGLNALHLAAKEGHVGLVQELLGRGSSVDSATKKGNTALHIASLAGQAEVVKVLVKEGANINAQSQNGFTPLYMAAQENHIDVVKYLLENGANQSTATEDGFTPLAVALQQGHNQAVAILLENDTKGKVRLPALHIAARKDDTKSAALLLQNDHNADVQSKMMVNRTTESGFTPLHIAAHYGNVNVATLLLNRGAAVDFTARNGITPLHVASKRGNTNMVKLLLDRGGQIDAKTRDGLTPLHCAARSGHDQVVELLLERGAPLLARTKNGLSPLHMAAQGDHVECVKHLLQHKAPVDDVTLDYLTALHVAAHCGHYRVTKLLLDKRANPNARALNGFTPLHIACKKNRIKVMELLVKYGASIQAITESGLTPIHVAAFMGHLNIVLLLLQNGASPDVTNIRGETALHMAARAGQVEVVRCLLRNGALVDARAREEQTPLHIASRLGKTEIVQLLLQHMAHPDAATTNGYTPLHISAREGQVDVASVLLEAGAAHSLATKKGFTPLHVAAKYGSLDVAKLLLQRRAAADSAGKNGLTPLHVAAHYDNQKVALLLLEKGASPHATAKNGYTPLHIAAKKNQMQIASTLLNYGAETNIVTKQGVTPLHLASQEGHTDMVTLLLDKGANIHMSTKSGLTSLHLAAQEDKVNVADILTKHGADQDAHTKLGYTPLIVACHYGNVKMVNFLLKQGANVNAKTKNGYTPLHQAAQQGHTHIINVLLQHGAKPNATTANGNTALAIAKRLGYISVVDTLKVVTEEVTTTTTTITEKHKLNVPETMTEVLDVSDEEGDDTMTGDGGEYLRPEDLKELGDDSLPSSQFLDGMNYLRYSLEGGRSDSLRSFSSDRSHTLSHASYLRDSAVMDDSVVIPSHQVSTLAKEAERNSYRLSWGTENLDNVALSSSPIHSGFLVSFMVDARGGAMRGCRHNGLRIIIPPRKCTAPTRVTCRLVKRHRLATMPPMVEGEGLASRLIEVGPSGAQFLGKLHLPTAPPPLNEGESLVSRILQLGPPGTKFLGPVIVEIPHFAALRGKERELVVLRSENGDSWKEHFCDYTEDELNEILNGMDEVLDSPEDLEKKRICRIITRDFPQYFAVVSRIKQDSNLIGPEGGVLSSTVVPQVQAVFPEGALTKRIRVGLQAQPMHSELVKKILGNKATFSPIVTLEPRRRKFHKPITMTIPVPKASSDVMLNGFGGDAPTLRLLCSITGGTTPAQWEDITGTTPLTFVNECVSFTTNVSARFWLIDCRQIQESVTFASQVYREIICVPYMAKFVVFAKSHDPIEARLRCFCMTDDKVDKTLEQQENFAEVARSRDVEVLEGKPIYVDCFGNLVPLTKSGQHHIFSFFAFKENRLPLFVKVRDTTQEPCGRLSFMKEPKSTRGLVHQAICNLNITLPIYTKESESDQEQEEEIDMTSEKNPQDEQERIEERLAYIADHLGFSWTELARELDFTEEQIHQIRIENPNSLQDQSHALLKYWLERDGKHATDTNLVECLTKINRMDIVHLMETNTEPLQERISHSYAEIEQTITLDHSEGFSVLQEELCTAQHKQKEEQAVSKESETCDHPPIVSEEDISVGYSTFQDGVPKTEGDSSATALFPQTHKEQVQQDFSGKMQDLPEESSLEYQQEYFVTTPGTETSETQKAMIVPSSPSKTPEEVSTPAEEEKLYLQTPTSSERGGSPIIQEPEEPSEHREESSPRKTSLVIVESADNQPETCERLDEDAAFEKGDDMPEIPPETVTEEEYIDEHGHTVVKKVTRKIIRRYVSSEGTEKEEIMVQGMPQEPVNIEEGDGYSKVIKRVVLKSDTEQSEDNNE
# Variants of: B1
# Details: with nac1_human SLC8A1, P32418
row,Variant,effect of a mutation on the interaction
1,E1458G,disrupting interaction
